The values that follow come from the DeepSol protein solubility set.

The nature of the data set: soluble on expression in E. coli; label from the status in PepcDB or PDB records.
“MAHHHHHHMDKQAERGQSAGPVKTPQGTQPPAHNYTYHTNAAQRAVYDYLKNVKPIPELAEPKTYKTYEEASVEAVLYPIIEKHQVIMVAGAFFGDEGKGKTVNAVANHPGCTFIARVNSGENAGHTVYDDAGRKFVFNLAPSGLLSKGKRNYVGPECVMDPISFMENEVKQLIEANVPYKEQLFIGNVSIVTPYHKLLDLLASAPNSSTLKGMAPIHASKVTKRGIRLDHIFNDQSVLRSRLRKDIDTYFGFLKVKGLSDADVLRRCEKENGDGVVRVPPYVVEFVQAEDKVEYLVKLYMDRVRNNKNFPARCDVAHELRSALSRGEKVMLEGPQSYWLSNAREKFWESTTSADTTASGLLATAQYNFQLYSSVVINVHKAPGSSRVGVGANPSSFVAQDYFSATGVKTLRDLPENMCVDFDSIQKLFFTKAFHPETKEYNGIWEPLEFEDSTGKYNIGVAMAVASSRQHGECGAVTKKPRVCGFFDCVLQYEVNAVQGPYLSISALDRGDDYDKLGVTIAYVYYNGKNDEVLNINGREYKNGDIIKAGEAVPGEVALYYCHPIVKLINGWKQTPIAASKRKPGDPLPRGVCEFLSTVEYFTKAKIISIGNGPRGKDIIYIKQ”: the “soluble on expression in E. coli” value is “not soluble”.

As for “MGSDKIHHHHHHMNITASFRDASLVAFDFPEILTRISKIIDALKAHDDSLRYENWMLKGDNQEDATRYHVYDAAGIATPAALAVLREEFRNSKDFTYVAMWDGNLASDNGASISCHVGDKSLPDTLTLRIEGERWKAYAAISGIVSTMVTIFSPALVEVSFDEYAVKQVFDDKPGVGWMLYLPKVITQQQVPEARALIPVPAKGKQTGTIIISVTDAPFSVDNPEHVAIANRIEIRLVDQDLLPAYVDI”, the “soluble on expression in E. coli” value is recorded as “not soluble”. In the case of “MSNTMQGAHYPQMAFDPTWQMHPAYATATAFNPYNVSFDFTRSPNTSGGSDESMSDGSKIDPKRSPKYLEKRMKNNEAAKKSRASRKHREQKNQTENELLKRKNAALEEELKQAKCELAQMQITIRDMSIEREAYRRENEMLKMVNNKFADSKFEPPQPLRDMTNCNLPYKYELLS” it was “not soluble”; in that of “MSLRILGRASSINVRKVLWACAEFEIAFEREDWGSGFKATDSTEFLALNPNAMIPVIQDGDFTLWESNSIIRYLASRYGATAFYPGEAQARARIDQWIDWQASDLNRSWSYAFMSLVRHSPAHQDPQALAAGCAEWSRYMRILDRQLASTGAYVAGSQFTLADIPIGLSVNRWFETPFEHPHLPAVRDYYERLSERPAYHLHGRNGTEGHHHHHH”, “soluble”.

As to “MPTASPIYDVVVVGAGISGLIATQLLDRAGLNIKCFEACSRVGGRAVSVQQSDLFLDLGATWFWLNEPLVQQLVNNLGLGTFPQAIEGDALFETLVDAPSRLRGNPIDAASGRFQAGASSLALGLAAQLKPGVLELGDPVHSLSEEDGEIVVKSSKQIVRAKHVIIAVPPALAAELIGFTLDLPADVRKAAHPQHIAVMNWAKEKYTLPTQAASAGGFGHELFQQPLGHGRIHWASTEVATEFGGHLEGAVRAGIQAALQTGFNLKSLEHHHHHH”, the “soluble on expression in E. coli” value is on record as “soluble”. In the case of “SRVKKNVLDYNAWAEGTLKGIKQEKKAYKERHRLFFEGLSEAEKVEYATKMAHDAQIYDEPEFDPQELQSEYYRGLYAFDNRKNNVDSYK” it was “soluble”; in that of “MSLTTYEMARILEQLDESPEKVMYGKLLNELGNQSSERIRSAAKQVPLTVLRDLVYQFQQVIESRKGEQVETMAKELAKQGISAEELLNYLQKR”, “not soluble”; in that of “MADNSDANGVPYYFLINMGGGFVEGEQYQVTIDVNKDAHALVTTQTPTYVYKCEKGQLTQQNTSITLEENSYLEYMADEVIPYLKSRYFQTSRIDMDKSAHLIYSDGVTAGWSHEDLPFQYHYFRNLTQIYQDNELVYSDQTLLEPEKQDMFKLGYFEGWRNYNSLVMVSPNIDEAFVKALQKHLEGLNLESDFAISSLDISGLVLRILGKTAEDNRRIIYSCADYFRQEIHGLTPLNLRKNDMRRLEHHHHHH”, “not soluble”. In the case of “MSFNTIIDWNSCTAEQQRQLLMRPAISASESITRTVNDILDNVKARGDEALREYSAKFDKTTVTALKVSAEEIAAASERLSDELKQAMAVAVKNIETFHTAQKLPPVDVETQPGVRCQQVTRPVASVGLYIPGGSAPLFSTVLMLATPASIAGCKKVVLCSPPPIADEILYAAQLCGVQDVFNVGGAQAIAALAFGTESVPKVDKIFGPGNAFVTEAKRQVSQRLDGAAIDMPAGPSEVLVIADSGATPDFVASDLLSQAEHGPDSQVILLTPAADMARRVAEAVERQLAELPRAETARQALNASRLIVTKDLAQCVEISNQYGPEHLIIQTRNARELVDSITSAGSVFLGDWSPESAGDYASGTNHVLPTYGYTATCSSLGLADFQKRMTVQELSKEGFSALASTIETLAAAERLTAHKNAVTLRVNALKEQA” it was “soluble”; in that of “MSLRKNESIRLIALGGVGEIGKNMYLAEVDEDLYVIDAGLMFPENEMLGIDIVIPDVSYLVQNKDRIRGIFLTHGHEDHIGALSYVLKKVSVPVYGTKLTLALAKAKMKEQDYRGKAELIEINSDSVLEFEHSSVSFFRTNHSIPDSVGICIHTSEGSIVYTGDFKFDQAAPELYKAEIGKMAGIGDNGVLCLLSDSTDAERPGYSTSEAVVQKAMAHAFYSAKGRVIAACFASDLIQIQHIFDAAEESGRKVAVAGKSIQKVYDLAVQLGYLAVKDDILIPLSELGSFRDHEVVILTAGSQGEPIEALQKMAKRTHRQVTIQEGDTVYLAAAPIRGGEVFIYKTMDMLYRAGATVITGKNSATASSHGSQEELKFMINLMKPKHFIPVHGEYKTLKSHGKLAAECGISQDSILIPEKGDVFEIKDGRIKQSGRVPAGNVLIDGIGVGDVGNIVLRDRRLLSQDGILIVVVTLNRHDKQIAAGPEIISRGFVYVRESEKLLVQAADMVKEIVHRGSQKESFDWAAVKQDMRDELNQFFYEKTKRRPMILPIIMEVKQEGHHHHHH”, “soluble”; in that of “IIGGHEAKPHSRPYMAYLQIMDEYSGSKKCGGFLIREDFVLTAAHCSGSKIQVTLGAHNIKEQEKMQQIIPVVKIIPHPAYNSKTISNDIMLLKLKSKAKRSSAVKPLNLPRRNVKVKPGDVCYVAGWGKLGPMGKYSDTLQEVELTVQEDQKCESYLKNYFDKANEICAGDPKIKRASFRGDSGGPLVCKKVAAGIVSYGQNDGSTPRAFTKVSTFLSWIKKTMKKS”, “soluble”.

As to “MSLIKTEFKGNNIPYEYAAGADVSDSINGNPIKSFPFEVIELPEGTKYLAWSLIDYDAIPVCGFAWIHWSVANVSVSGNSISIKADLSRTKGDYVQGKNSFTSGLLAEDFSEIENHYVGPTPPDQDHQYELTVYALDHSLNLKNGFYLNEFLKEVNQHKIDQTSINLIGRKEGGSHHHHHH”, the “soluble on expression in E. coli” value was “soluble”. As for “MGTIKIVTDSSITIEPELIKALDITVVPLSVMIDSKLYSDNDLKEEGHFLSLMKASKSLPKTSQPPVGLFAETYENLVKKGVTDIVAIHLSPALSGTIEASRQGAEIAEAPVTVLDSGFTDQAMKFQVVEAAKMAKAGASLNEILAAVQAIKSKTELYIGVSTLENLVKGGRIGRVTGVLSSLLNVKVVMALKNDELKTLVKGRGNKTFTKWLDSYLAKNSHRPIAEIAISYAGEASLALTLKERIAAYYNHSISVLETGSIIQTHTGEGAFAVMVRYE”, the entry is “soluble”; as for “MSFKDPPTLQQLARRSLLKDEALTISALPNLPVQLFPPLFKDAFTSRQRKILSLMVATWPFPVLPVGALCGIDHLETLKAVLDGLDLLMSQKDRPSRWNLQVLDLRDAHQDFWDGWAGLLHEVCSQDVFGKNQPVGNHPIPGGKQTISIKMNLSLKYCRRHSHCENLNYLYYWAKQRKDVIQVIFEKLEFTGKHCLRLKLWRLLKLSFVASIQELTIKSIHWDIYNLALIASCLGQMKNLQKLILMNIRRPSSLTDLQEARIITEIFSEFSKLHKLQHLYVNDVYFLKERLDLMLRCFERPLETLTITYCKLSESDMRYLSQCPSIHQLKYLDMSYTTFKPSSHRFLGFLGSLLERLTATLQTLKLECFHLTDSRIRDLLPGLSQCSQLTEVDFVENKFSMVSLKTLLQHTANLTQLTLEKYPAPDEVYDDSLCVIPDRFVQLCSELMNTLKGVRQPKQVYFESTIYSPNFEYLVYNLEGMVSSEPLRRRGRGMVIYISG”, “not soluble”. As for “MGSDKIHHHHHHGEGVVVATGKAQAAASTVAGNAYGRLQFSPCTLSSGSAAGNIEAQCAQLQVPENPAAPNGRKLALKIAWLESDAGASHAPDPVFFIAGGPGQSATQVAAIVDMGLREVRKHRDIFLVDQRGTGGSHPLECRDAGGTPLVLENDSAATAEQLSAYAARCAAGLRNDADPRYFTTSEAIGDLDAVREALGAQQINLIGGSYGTRVAQQYAARYPQHTRTVVLDGVAPNDLVIGGEFARTFEDAIALQTTQCKAQPACAKRFPVDTRTQLRQVVERLRQAPAPVDYRDPRTGELHHQEVNADTVAGLAFGFSYAPETASLLPLVLDEAAAGRYASLMALAQMSGSDMADQMNRPMQWSVLCSEDAGRYRAPAAQDDTLLGAQVAEMFFAACKTWPSKPTPAAAFAPFRSTLPVLLLSGQLDPVTPPRYAARVLQGLPNGRHLIAPGQSHGVFRLGCMPKVLGQFLQTADAKGLDARCVDSLTDVPAFTSFNGWEP”, the entry is “not soluble”; as for “MGSDKIHHHHHHMNWDDIKIFLEVARAERLSTAAKRLTMDASTVSRRLHKLEESIATKLFDRTQDGHVLTPDGEMLLTSACKMEQDAQHALSSIHNNNEENCGLVRIGVTEALGNFFVSPNLLTLQQQHPSIDVHLLLFSRYVKISRNEADIAIAVERPKSTSMIVSKLCDYKLQLYVHQDYLDHNLKQYPQGITLDNLAEHKWVTYVDNLIFTDQLSYIKELDRYLSGELKANFSSTSIISQYFAIKSGLGIGILPCFLADQDKSLIKLHSQDITISRSFWLVTHPESKRLSHVNTVWQYLKQLVLEHAELLNPKE”, “not soluble”. As for “MSQILNVTLITETFTPEINGVANTLGRLCDGLRLRGHRVELVRPRQSDEINSGAADDLMLCRGWPIPGYPGLQWGQSSMHKLLRRWQRRRPDVLYIATEGPLGLSALRAARRLGIAVISGFHTNFPQYTQQYGMGFITRLLTHYLRWFHNRSRVTLVPSVSQKVELERRGFERIELLSRGVDSQLFNPSRCSQALRESWGLQTGDIGVIHVGRLAPEKNLGLLKTGFEALKSSYPQRTIKLIVVGDGPQRSELEQQIPDAIFCGTLRGEVLATHYASADMFLFPSLTETFGNVVLEALASGLGVVAYDEAAAGQHIRHGHNGALAMPGDETAFVDAARWLLEDSENLRRVRLNARQHASRQGWTAIIDQFERQLRDACPSESSKTLRQTSDKTIRPVSSMPLDLEHHHHHH”, the “soluble on expression in E. coli” value is “not soluble”. With “MKLAYWMYAGPAHIGTLRISSSFRNVHAIMHAPLGDDYFNVMRSMLERERNFTPVTTSVVDRNVLARGSQEKVIDNILRKDTEERPDLIVLTPTCTSSILQEDLQNFVERAKESAQCDVLLADVNHYRVNELQAADRTLEQIVRFYLDRAQRQGTLPSQRTEQPSVNILGMTTLGFHNRHDTTELQRLMADLGITVNAVIPAGASVEELQHLPRAWFNLVPYREVGLLTAQYLQDTFDQPMVAIAPMGITATADCIRQIQQVLNQQGAAVDFEPFIDRQTRFASEAAWFSHSIDCQNLTGKRAVVFGDNTHAAAFTKILSREMGIHVVLAGTYCKHDADWFEAEVAGYCDRVLISDDHNAIADAIAELEPAAIFGTQMERHVGKRLNIPCGVIAAPVHIQNFPVGYRPFVGYEGANQIVDLVYNSFTLGMEDHLLEIFGGHDTKEVLTKTVSAGSDLDWKPDGLTELNRIPGFVRGKVKRNTEKYAREQGLTAITAEVLYAAKEALGALEHHHHHH”, the “soluble on expression in E. coli” value is recorded as “not soluble”. As to “EAQTRVKLNFLDQIAKYWELQGSTLKIPHVERKILDLFQLNKLVAEEGGFAVVCKDRKWTKIATKMGFAPGKAVGSHIRGHYERILNPYNLFLSGDSLRCLQKPNLTSDTKDKEY”, the “soluble on expression in E. coli” value is reported as “soluble”.
